In US20240200091A1, “USE OF PROTOPORPHYRINOGEN OXIDASE” (BEIJING DABEINONG BIOTECHNOLOGY CO., LTD., priority 2021, published 2024):

Key:
Format in all cases: in vivo
[1] = system: Arabidopsis thaliana T1 plants; experiment: sulfentrazone tolerance of transgenic Arabidopsis thaliana T1 plants (spray, grade of pesticide damage); conditions: 7 DAT, number of plants of 24 per genotype, grades
Summary of the method: (§1)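 T1 lines expressing individual PPO variants, control-vector and wild-type plants (24 per genotype) were sprayed 18 days after sowing: oxyfluorfen 180/720, saflufenacil 25/100, flumioxazin 60/240, sulfentrazone 450/900 g ai/ha, or water. Damage graded 0–3 from injured leaf area at 7 DAT.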

[2] = system: transgenic soybean plants; experiment: saflufenacil tolerance of transgenic soybean plants (spray, grade of pesticide damage); parameters: key to damage levels rated at grade: grade 0 means that the growth status of plants is essentially consistent with those sprayed with the blank solvent (water); grade 1 means that the average of the damage levels of plants is less than 10%; grade 2 means that the average of the damage levels of plants is greater than 100%; grade 3 means that the average of the damage levels of plants is 100%; conditions: for The grade of pesticide damage/plant: grade 0 / The grade of pesticide damage/plant: grade 1 / The grade of pesticide damage/plant: grade 2 / The grade of pesticide damage/plant: grade 3: 7 DAT, number of plants of 16 per genotype, grades
[3] = system: Arabidopsis thaliana T1 plants; experiment: saflufenacil tolerance of transgenic Arabidopsis thaliana T1 plants (spray, grade of pesticide damage); conditions: 7 DAT, number of plants of 24 per genotype, grades
Summary of the method: as §1

[4] = system: transgenic soybean plants; experiment: flumioxazin tolerance of transgenic soybean plants (spray, grade of pesticide damage); conditions: for The grade of pesticide damage/plant: grade 0 / The grade of pesticide damage/plant: grade 1 / The grade of pesticide damage/plant: grade 2 / The grade of pesticide damage/plant: grade 3: 7 DAT, number of plants of 16 per genotype, grades
[5] = system: transgenic soybean plants; experiment: oxyfluorfen tolerance of transgenic soybean plants (spray, grade of pesticide damage); conditions: for The grade of pesticide damage/plant: grade 0 / The grade of pesticide damage/plant: grade 1 / The grade of pesticide damage/plant: grade 2 / The grade of pesticide damage/plant: grade 3: 7 DAT, number of plants of 16 per genotype, grades; for tolerance to oxyfluorfen: soybean
[6] = system: Arabidopsis thaliana T1 plants; experiment: oxyfluorfen tolerance of transgenic Arabidopsis thaliana T1 plants (spray, grade of pesticide damage); conditions: 7 DAT, number of plants of 24 per genotype, grades
Summary of the method: as §1

[7] = system: Arabidopsis thaliana T1 plants; experiment: flumioxazin tolerance of transgenic Arabidopsis thaliana T1 plants (spray, grade of pesticide damage); conditions: 7 DAT, number of plants of 24 per genotype, grades
Summary of the method: as §1

B1: PPO12A: nucleotide sequence encoding microbial protoporphyrinogen oxidase PPO12 (SEQ ID NO:12), Arabidopsis thaliana/soybean common codon usage bias (nucleic acid)
DNA: ATGAAGAAAGCTCTTTTCCTGTACAGCTCGAGAGAAGGCCAGACAAAAAAGATTCTCAACTACATAGAAGGAGAGTTATCAAATTTTGAATGTGAATTGGTTGACCTTCACACGCTTGATGCTATTGATTTCTCCGTCTATGATCGGGTGCTCATTGGTGCTTCTATACGATATGGTCATTTGAACAAGAAGCTTTATCAGTTTATAGAGAACAACAGACAACAACTAGAGAATCATACCAAAGTTGCCTTCTTCTGCGTCAATCTTACTGCAAGGAAAGAAGATCAAGGAAAAGACACTCCTGAGGGGAGTGTTTACATCCAGAAATTTCTCAAGAAATCACCATGGCAACCGAAGTTGATTGGAGTTTTCGCGGGGGCATTATACTACCCTCGTTATGGATTCTTTGATAAGATGATGATCAAACTCATCATGACTTTAACTGATGGTGAAACCGACACAACAAAGGAAGTGGAGTATACAAATTGGAAAAAAGTATCTTTGTTTGCAAAGAAGTTTGCTGAGCTGTGA
modifications: The nucleotide sequence of PPO12A
- The grade of pesticide: grade 0 ([1]; sulfentrazone 450 g ai/ha (1×)): 24
- The grade of pesticide: grade 1 ([1]; sulfentrazone 450 g ai/ha (1×)): 0
- The grade of pesticide: grade 2 ([1]; sulfentrazone 450 g ai/ha (1×)): 0
- The grade of pesticide: grade 3 ([1]; sulfentrazone 450 g ai/ha (1×)): 0
- The grade of pesticide: grade 0 ([1]; sulfentrazone 900 g ai/ha (2×)): 23
- The grade of pesticide: grade 1 ([1]; sulfentrazone 900 g ai/ha (2×)): 1
- The grade of pesticide: grade 2 ([1]; sulfentrazone 900 g ai/ha (2×)): 0
- The grade of pesticide: grade 3 ([1]; sulfentrazone 900 g ai/ha (2×)): 0
- The grade of pesticide damage/plant: grade 0 ([2]; saflufenacil 50 g ai/ha (2×)): 16 plant
- The grade of pesticide damage/plant: grade 1 ([2]; saflufenacil 50 g ai/ha (2×)): 0 plant
- The grade of pesticide damage/plant: grade 2 ([2]; saflufenacil 50 g ai/ha (2×)): 0 plant
- The grade of pesticide damage/plant: grade 3 ([2]; saflufenacil 50 g ai/ha (2×)): 0 plant
- The grade of pesticide damage/plant: grade 0 ([2]; saflufenacil 100 g ai/ha (4×)): 16 plant
- The grade of pesticide damage/plant: grade 1 ([2]; saflufenacil 100 g ai/ha (4×)): 0 plant
- The grade of pesticide damage/plant: grade 2 ([2]; saflufenacil 100 g ai/ha (4×)): 0 plant
- The grade of pesticide damage/plant: grade 3 ([2]; saflufenacil 100 g ai/ha (4×)): 0 plant
- tolerance to saflufenacil ([2]; soybean, saflufenacil at four-fold field concentration (100 g ai/ha)): high-resistant tolerance
- damage levels rated at grade ([2]; soybean, saflufenacil at two-fold field concentration (50 g ai/ha)): 0
- tolerance to saflufenacil ([2]; soybean, saflufenacil, compared with the control vector and CK): different extents of tolerance
- The grade of pesticide damage/plant: grade 0 ([3]; saflufenacil 25 g ai/ha (1×)): 24 plant
- The grade of pesticide damage/plant: grade 1 ([3]; saflufenacil 25 g ai/ha (1×)): 0 plant
- The grade of pesticide damage/plant: grade 2 ([3]; saflufenacil 25 g ai/ha (1×)): 0 plant
- The grade of pesticide damage/plant: grade 3 ([3]; saflufenacil 25 g ai/ha (1×)): 0 plant
- The grade of pesticide damage/plant: grade 0 ([3]; saflufenacil 100 g ai/ha (4×)): 0 plant
- The grade of pesticide damage/plant: grade 1 ([3]; saflufenacil 100 g ai/ha (4×)): 24 plant
- The grade of pesticide damage/plant: grade 2 ([3]; saflufenacil 100 g ai/ha (4×)): 0 plant
- The grade of pesticide damage/plant: grade 3 ([3]; saflufenacil 100 g ai/ha (4×)): 0 plant
- The grade of pesticide damage/plant: grade 0 ([4]; flumioxazin 120 g ai/ha (2×)): 16 plant
- The grade of pesticide damage/plant: grade 1 ([4]; flumioxazin 120 g ai/ha (2×)): 0 plant
- The grade of pesticide damage/plant: grade 2 ([4]; flumioxazin 120 g ai/ha (2×)): 0 plant
- The grade of pesticide damage/plant: grade 3 ([4]; flumioxazin 120 g ai/ha (2×)): 0 plant
- The grade of pesticide damage/plant: grade 0 ([4]; flumioxazin 240 g ai/ha (4×)): 16 plant
- The grade of pesticide damage/plant: grade 1 ([4]; flumioxazin 240 g ai/ha (4×)): 0 plant
- The grade of pesticide damage/plant: grade 2 ([4]; flumioxazin 240 g ai/ha (4×)): 0 plant
- The grade of pesticide damage/plant: grade 3 ([4]; flumioxazin 240 g ai/ha (4×)): 0 plant
- tolerance to flumioxazin ([4]; soybean, flumioxazin at different concentrations (120 and 240 g ai/ha)): high-resistant tolerance
- The grade of pesticide damage/plant: grade 0 ([5]; oxyfluorfen 360 g ai/ha (2×)): 16 plant
- The grade of pesticide damage/plant: grade 1 ([5]; oxyfluorfen 360 g ai/ha (2×)): 0 plant
- The grade of pesticide damage/plant: grade 2 ([5]; oxyfluorfen 360 g ai/ha (2×)): 0 plant
- The grade of pesticide damage/plant: grade 3 ([5]; oxyfluorfen 360 g ai/ha (2×)): 0 plant
- The grade of pesticide damage/plant: grade 0 ([5]; oxyfluorfen 720 g ai/ha (4×)): 16 plant
- The grade of pesticide damage/plant: grade 1 ([5]; oxyfluorfen 720 g ai/ha (4×)): 0 plant
- The grade of pesticide damage/plant: grade 2 ([5]; oxyfluorfen 720 g ai/ha (4×)): 0 plant
- The grade of pesticide damage/plant: grade 3 ([5]; oxyfluorfen 720 g ai/ha (4×)): 0 plant
- tolerance to oxyfluorfen ([5]; oxyfluorfen at four-fold field concentration (720 g ai/ha)): high-resistant tolerance
- tolerance to oxyfluorfen ([5]; oxyfluorfen at two-fold field concentration (360 g ai/ha)): high-resistant tolerance
- The grade of pesticide damage/plant: grade 0 ([6]; oxyfluorfen 180 g ai/ha (1×)): 24 plant
- The grade of pesticide damage/plant: grade 1 ([6]; oxyfluorfen 180 g ai/ha (1×)): 0 plant
- The grade of pesticide damage/plant: grade 2 ([6]; oxyfluorfen 180 g ai/ha (1×)): 0 plant
- The grade of pesticide damage/plant: grade 3 ([6]; oxyfluorfen 180 g ai/ha (1×)): 0 plant
- The grade of pesticide damage/plant: grade 0 ([6]; oxyfluorfen 720 g ai/ha (4×)): 20 plant
- The grade of pesticide damage/plant: grade 1 ([6]; oxyfluorfen 720 g ai/ha (4×)): 4 plant
- The grade of pesticide damage/plant: grade 2 ([6]; oxyfluorfen 720 g ai/ha (4×)): 0 plant
- The grade of pesticide damage/plant: grade 3 ([6]; oxyfluorfen 720 g ai/ha (4×)): 0 plant
- The grade of pesticide damage/plant: grade 0 ([7]; flumioxazin 60 g ai/ha (1×)): 24 plant
- The grade of pesticide damage/plant: grade 1 ([7]; flumioxazin 60 g ai/ha (1×)): 0 plant
- The grade of pesticide damage/plant: grade 2 ([7]; flumioxazin 60 g ai/ha (1×)): 0 plant
- The grade of pesticide damage/plant: grade 3 ([7]; flumioxazin 60 g ai/ha (1×)): 0 plant
- The grade of pesticide damage/plant: grade 0 ([7]; flumioxazin 240 g ai/ha (4×)): 24 plant
- The grade of pesticide damage/plant: grade 1 ([7]; flumioxazin 240 g ai/ha (4×)): 0 plant
- The grade of pesticide damage/plant: grade 2 ([7]; flumioxazin 240 g ai/ha (4×)): 0 plant
- The grade of pesticide damage/plant: grade 3 ([7]; flumioxazin 240 g ai/ha (4×)): 0 plant
